# From paper PMC6479716
# Biological target: AEDANS labelled N-ter hexahistidine tagged LMV VPg (Lettuce mosaic virus (isolate AF199))
# Experiment: fluorescence polarisation; steady state fluorescence anisotropy of AEDANS labelled His6 VPg* (300 nM) on addition of His6 eIF4E; 25 °C, 20 mM HEPES pH 7.5, 0.25 mM NaCl, 1 mM DTT
binder,measurement,value
N-ter hexahistidine tagged lettuce eIF4E (natural protein) MVEEIMKSEEQKLIDVNKHRGVRSDGEEDEQLEEGEIVGGDADTLSSSSSSRPGTAIAQHPLEHSWTFWFDTPSAKSKQVAWGSSMRPIYTFSSVEEFWSLYNNIHRPSKLAQGADFYCFKNKIEPKWEDPVCANGGKWTMTFTKAKSDTCWLYTLLAMIGEQFDHGDDICGAVVNVRARQEKIALWTKNAANESAQLSIGKQWKEFIDYNDTIGFIFHEDAKTLDRSAKNKYTV,Kd,63 nM
